Data as given in patent US20260374812 (published 2026).
Where no end group is shown, it is not given here.

T1: TTR40-49 (human)
T1 chain: TWEPFASGKT

T2: Biotin.TTR40-49 (human, not fully specified (N-terminus))
T2 chain: TWEPFASGKT

B1: NI-301.37F1 (antibody, V domains shown)
VH: QVQLQESGPGLVKPSETLSLTCSVSGGSIISRSSYWGWIRQPPGKGLEWIGGIYHSGNTYDNPSLKSRLTMSVDTSKNQFSLNLRSVTAADTAVYYCARIVPGGDAFDIWGQGTMVTVSS
VL: DIQMTQSPSSLSASVGDRVTIACRASQSVGTYLNWYQQKRGKAPKLLIFAASSLQSGVPSRFSGSGSGTDFTLTISSLQPEDFATYYCQQSYSSPPTFGQGTKVEIK
B2: NI-301.37F1 (antibody, V domains shown)
VH: B1 VH
VL: B1 VL
modifications: plasma-purified wild-type TTR, misfolded/aggregated at pH 3.0

Columns and labels:
[1] = molecular target: T3, TTR34-54cyc (human, cyclic, disulfide between the two Cys in the poly-Gly linkers); assay: ELISA, ELISA-2
[2] = molecular target: T3, TTR34-54cyc; assay: ELISA, ELISA-1
[3] = molecular target: T1, TTR40-49; assay: ELISA
[4] = molecular target: T2, Biotin.TTR40-49; assay: ELISA
[5] = molecular target: mis.WT-TTR (human); assay: ELISA, ELISA-1
[6] = molecular target: mis.WT-TTR (human); assay: ELISA, ELISA-2

T3 sequence (chain, as listed by the source): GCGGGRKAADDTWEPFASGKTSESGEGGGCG

EC50 [1]	EC50 [2]	binding result [3]	binding result [4]	EC50 [5]	EC50 [6]	Binder
0.66 nM	0.027 nM	no binding	no binding	–	–	B1
–	–	–	–	0.338 nM	8.3 nM	B2
